“And” between values parts separate entries of the source, which are not always exact repeats. Equal entries are not always repeated.
Key:
Assay in all cases: SPR; BIAcore X-100, room temperature; hAPN/pAPN WT or mutant immobilised on CM5 chips via amine coupling; serially diluted PDCoV RBD WT or mutant flowed over in HEPES buffer (0.01 M HEPES, 0.15 M NaCl, 0.5% surfactant P20, 3 mM EDTA, pH 7.4); steady-state affinity model; each of two experiments listed
[1] = biological target: human aminopeptidase N ectodomain, wild type (human) (UniProt P15144)
Chain of human aminopeptidase N ectodomain, wild type (human) (P15144 62-963): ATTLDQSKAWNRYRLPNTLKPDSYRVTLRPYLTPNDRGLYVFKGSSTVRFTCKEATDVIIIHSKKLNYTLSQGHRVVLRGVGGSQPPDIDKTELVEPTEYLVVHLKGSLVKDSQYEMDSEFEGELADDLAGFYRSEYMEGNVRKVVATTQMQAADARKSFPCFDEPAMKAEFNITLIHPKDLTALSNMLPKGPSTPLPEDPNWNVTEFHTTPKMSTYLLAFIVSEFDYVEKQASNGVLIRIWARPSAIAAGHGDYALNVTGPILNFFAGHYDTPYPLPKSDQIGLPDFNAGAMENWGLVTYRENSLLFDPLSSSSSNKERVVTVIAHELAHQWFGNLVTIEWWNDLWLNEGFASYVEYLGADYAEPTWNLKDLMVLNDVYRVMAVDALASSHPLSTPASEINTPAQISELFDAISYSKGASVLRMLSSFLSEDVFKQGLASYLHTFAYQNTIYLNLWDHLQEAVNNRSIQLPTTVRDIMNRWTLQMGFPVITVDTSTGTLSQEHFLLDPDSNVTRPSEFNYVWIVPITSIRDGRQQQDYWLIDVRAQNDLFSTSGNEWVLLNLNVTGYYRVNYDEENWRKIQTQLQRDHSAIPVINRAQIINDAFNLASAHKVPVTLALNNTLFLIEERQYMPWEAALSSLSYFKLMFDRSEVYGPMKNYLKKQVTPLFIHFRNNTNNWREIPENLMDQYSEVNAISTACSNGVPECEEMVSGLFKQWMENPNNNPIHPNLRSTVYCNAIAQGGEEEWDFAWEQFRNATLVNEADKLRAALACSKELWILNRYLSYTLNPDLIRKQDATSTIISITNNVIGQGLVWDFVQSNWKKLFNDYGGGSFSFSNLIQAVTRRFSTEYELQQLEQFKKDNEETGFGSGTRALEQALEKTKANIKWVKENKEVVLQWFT

[2] = biological target: human aminopeptidase N ectodomain E745A (human) (UniProt P15144)
Chain of human aminopeptidase N ectodomain E745A (human) (P15144 62-963 E745A): as the sequence (P15144 62-963) above, with E684A counted along it

[3] = biological target: human aminopeptidase N ectodomain W429A (human) (UniProt P15144)
Chain of human aminopeptidase N ectodomain W429A (human) (P15144 62-963 W429A): as the sequence (P15144 62-963) above, with W368A counted along it

[4] = biological target: human aminopeptidase N ectodomain H789A (human) (UniProt P15144)
Chain of human aminopeptidase N ectodomain H789A (human) (P15144 62-963 H789A): as the sequence (P15144 62-963) above, with H728A counted along it

[5] = biological target: human aminopeptidase N ectodomain K379A (human) (UniProt P15144)
Chain of human aminopeptidase N ectodomain K379A (human) (P15144 62-963 K379A): as the sequence (P15144 62-963) above, with K318A counted along it

[6] = biological target: porcine aminopeptidase N ectodomain, wild type (pig) (UniProt P15145)
Chain of porcine aminopeptidase N ectodomain, wild type (pig) (P15145 58-961): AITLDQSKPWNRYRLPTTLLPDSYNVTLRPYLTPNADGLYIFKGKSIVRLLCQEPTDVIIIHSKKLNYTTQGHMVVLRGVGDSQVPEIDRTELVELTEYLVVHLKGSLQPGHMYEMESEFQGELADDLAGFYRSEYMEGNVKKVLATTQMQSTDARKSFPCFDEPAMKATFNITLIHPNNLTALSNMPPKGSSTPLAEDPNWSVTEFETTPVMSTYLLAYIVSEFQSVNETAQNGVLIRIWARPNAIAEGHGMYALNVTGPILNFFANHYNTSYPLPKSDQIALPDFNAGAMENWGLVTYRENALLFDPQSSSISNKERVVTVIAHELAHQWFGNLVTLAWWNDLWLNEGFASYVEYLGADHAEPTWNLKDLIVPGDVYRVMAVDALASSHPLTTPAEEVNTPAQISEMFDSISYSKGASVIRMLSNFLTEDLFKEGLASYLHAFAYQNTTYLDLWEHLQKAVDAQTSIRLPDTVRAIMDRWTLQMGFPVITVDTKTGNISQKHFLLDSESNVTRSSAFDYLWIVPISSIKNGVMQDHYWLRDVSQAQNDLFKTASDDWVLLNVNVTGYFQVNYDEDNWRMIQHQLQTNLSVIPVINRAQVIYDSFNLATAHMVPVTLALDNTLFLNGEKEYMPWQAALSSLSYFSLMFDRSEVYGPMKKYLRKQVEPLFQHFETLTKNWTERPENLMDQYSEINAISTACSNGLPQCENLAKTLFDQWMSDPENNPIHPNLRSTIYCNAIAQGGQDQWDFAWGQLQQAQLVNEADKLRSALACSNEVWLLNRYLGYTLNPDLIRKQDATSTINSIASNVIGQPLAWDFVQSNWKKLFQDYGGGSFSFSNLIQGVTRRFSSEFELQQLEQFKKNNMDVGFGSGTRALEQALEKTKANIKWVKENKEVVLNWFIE

[7] = biological target: human aminopeptidase N ectodomain E426A (human) (UniProt P15144)
Chain of human aminopeptidase N ectodomain E426A (human) (P15144 62-963 E426A): as the sequence (P15144 62-963) above, with E365A counted along it

[8] = biological target: human aminopeptidase N ectodomain Y316A (human) (UniProt P15144)
Chain of human aminopeptidase N ectodomain Y316A (human) (P15144 62-963 Y316A): as the sequence (P15144 62-963) above, with Y255A counted along it

[9] = biological target: human aminopeptidase N ectodomain E742A (human) (UniProt P15144)
Chain of human aminopeptidase N ectodomain E742A (human) (P15144 62-963 E742A): as the sequence (P15144 62-963) above, with E681A counted along it

[10] = biological target: porcine aminopeptidase N ectodomain E421A (pig) (UniProt P15145)
Chain of porcine aminopeptidase N ectodomain E421A (pig) (P15145 58-961 E421A): as the sequence (P15145 58-961) above, with E364A counted along it

[11] = biological target: porcine aminopeptidase N ectodomain W424A (pig) (UniProt P15145)
Chain of porcine aminopeptidase N ectodomain W424A (pig) (P15145 58-961 W424A): as the sequence (P15145 58-961) above, with W367A counted along it

PDCoV RBD (receptor binding domain of the porcine deltacoronavirus spike protein), wild type (domain or fragment)
Kd [1]: 3.76 µM and 3.66 µM
Kd [2]: 3.13 µM and 3 µM
Kd [3]: 158 µM and 97 µM
Kd [4]: 6.47 µM and 6.03 µM
Kd [5]: 516 µM and 371 µM
Kd [6]: 42 µM and 46.5 µM
Kd [7]: 305 µM and 362 µM
Kd [8]: 35.7 µM and 38.5 µM
Kd [9]: 14.3 µM and 13.2 µM
Kd [10]: 103 µM and 146 µM
Kd [11]: 113 µM and 119 µM

— PMC8933513 (2022)
